Measured values as given in the supplement of paper PMC9170038.

Test system: MS2 coat protein
Experiment: apparent KD of MS2 coat protein; designed switch direction (-1 OFF switch, 1 ON switch): -1; higher = weaker reporter binding
Outline: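 Designed RNA switches with common flanks were made on Illumina chips by stalled E. coli RNA polymerase. Titration with SNAP-549-labelled MS2 coat protein doubled from 0.7 or 1.5 nM up to 3 µM. Apparent KD is each design's median over clusters after curve-fitting normalised fluorescence.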

[1] = input ligand: microRNA oligo, concentration not stated
[2] = Eterna round: R95, input ligand: microRNA oligo, concentration not stated
[3] = Eterna round: R95, input ligand: FMN 200 uM
[4] = Eterna round: R95, input ligand: none

Sequence	apparent KD of MS2 coat protein (input ligand: FMN 200 uM) [µM]	apparent KD of MS2 coat protein [1] [µM]	apparent KD of MS2 coat protein (input ligand: none) [µM]	apparent KD of MS2 coat protein [2] [µM]	apparent KD of MS2 coat protein [3] [µM]	apparent KD of MS2 coat protein [4] [µM]
ACAUGAGGAUCACCCAUGUGAAAAGAAUGGCUGACACAGAGAUAGGAUAUAGGUGCAUAUCUAACCUAGAAGGGUCAUGACUGG [Deportation 77 - Jieux - Exclusion NG 3] (Eterna round: R96, puzzle: Exclusion NG 3)	0.0235	0.0223	0.033	–	–	–
ACAUGAGGAUCACCCAUGUGACAAUAAUGGCUGAUACAGAGACAGGAUAUUCGUGAAUAUCUAACGAAGAAGGGUCAUGACUGG [Deportation 69 - Jieux - Exclusion NG 3] (Eterna round: R96, puzzle: Exclusion NG 3)	0.0379	0.0457	0.0518	–	–	–
ACAUGAGGAUCACCCAUGUGACCACGAUGGCUGAUGUAAAGACAGGAUAUGUGUGAAUAUCUAACACAGAAGGGUCUUGACUGG [Deportation 56 - Jieux - Exclusion NG 3] (Eterna round: R96, puzzle: Exclusion NG 3)	0.0338	0.0326	0.0332	–	–	–
ACAUGAGGAUCACCCAUGUUGUACUGGAUAGGGUGGUCCAGGUAGGAUAUGCAAACGCGUUGCGAGCAGAAGGACCACAGCCAG [Ceed] (Eterna round: R96, puzzle: Exclusion NG 3)	0.0498	0.0294	0.0353	–	–	–
ACAUGUAAUGCAGGAUAUGGGACACAUGAGGAUCACCCAUGUUACCAUAUGUAAUGCUAAGAGUCUCAGAAGGGUAUGUACAUG [Ex NG2 #47] (Eterna round: R96, puzzle: Exclusion NG 2)	0.0086	0.0122	0.0156	–	–	–
ACAUGUAAUGUAGGAUAUUUUACACAUGAGGAUCACCCAUGUAACCGGAGGCUUUACUAUGAGUAAGAGAAGGGUAUGUACAUG [Ex NG2 #63] (Eterna round: R96, puzzle: Exclusion NG 2)	0.0905	0.0852	0.131	–	–	–
ACAUGUACAGAGGAUAUGCGCCUUGGCAAUGGUGUAGAAGGCUGAACAUGAGGAUCACCCAUGUGCAAUCCAAC [EX6 A.5] (Eterna round: R97, puzzle: Exclusion 6)	0.378	–	0.0554	–	–	–
ACAUGUAUUGCAGGAUAUGGGACACAUGAGGAUCACCCAUGUGACUACAUGUCAUGCCACGGGUCUCAGAAGGGUAUGUACAUG [Ex NG2 #41] (Eterna round: R96, puzzle: Exclusion NG 2)	0.0233	0.0121	0.0149	–	–	–
ACAUGUCAUUGAGGAUAUCGCACACAUGAGGAUCACCCAUGUAAACGGAUGCUCUUUCGUGGGUUCGAGAAGGCGAUGUACAUU [Ex NG2 #96] (Eterna round: R96, puzzle: Exclusion NG 2)	0.136	0.049	0.088	–	–	–
ACAUGUCAUUGAGGAUAUUGCACACAUGAGGAUCACCCAUGUAAACGGAUGCUCUUACGUGGGUUCGAGAAGGCGAUGUACAUU [Ex NG2 #94] (Eterna round: R96, puzzle: Exclusion NG 2)	0.156	0.186	0.252	–	–	–
ACAUGUUAUCCAUGAUAUCACAUGAGGAUCACCCAUGUUAUGGCGAUUUUGAGGUGUAAGCUUUGUGCUCGACUUAU [JR_STOV1_Sub056] (Eterna round: R97, puzzle: Sensor, turn-off variant 1)	0.045	–	0.05	–	–	–
ACAUUACAUGAGGAUCACCCAUGUGAGGAUAUGGUGCGGUAGUGUCCUGUCGCGUACUCCAGAAGGCGCGGGUG [1st #46] (Eterna round: R97, puzzle: Exclusion 1)	0.174	–	0.194	–	–	–
ACAUUGAAUGUGAGGAUAUCGAUGUGAUGGGUUGUCGAGAAGGCACAUGAGGAUCACCCAUGUGGGAUGUAGCA [JR_BMEx4_Sub033] (Eterna round: R97, puzzle: Brourd's mod of Exclusion 4)	0.349	–	0.0912	–	–	–
ACCAAAGCAGUAGGAUAUACGCACAUGAGGAUCACCCAUGUAGCACGUCUCCAGACACCGAAUGCGUAGAAGGACUGCGCGCAA [Eternabot solution 3] (Eterna round: R96, puzzle: Exclusion NG 2)	0.00786	0.00469	0.017	–	–	–
ACCAAGCUAGGAUAUGCUUGGGCUCAAAUAAAUAAACACAAACAUGAGGAUCACCCAUGUAGAAGGAGCUUGCU [Zaabiquer] (puzzle: Exclusion 2)	–	–	–	0.0126	–	–
ACCGAACAUGAGGAUCACCCAUGUAAGGAUAUCCGUGGACAGCGCCAAAGUUACCGGCGGAGAAGGUGCAUGGU (Eterna round: R97, puzzle: Exclusion 1)	0.0246	–	0.0192	–	–	–
ACCGUGUAAGGAUAUCGAGGCCGAGGAAGUCGCAUGGCCUGUGAGAAGGUACAUGAGGAUCACCCAUGUCCCAU [Eternabot (L2) Solution 6] (Eterna round: R97, puzzle: Exclusion 4)	0.0287	–	0.0276	–	–	–

Sequence	apparent KD of MS2 coat protein (input ligand: FMN 200 uM) [µM]	apparent KD of MS2 coat protein [1] [µM]	apparent KD of MS2 coat protein (input ligand: none) [µM]	apparent KD of MS2 coat protein [2] [µM]	apparent KD of MS2 coat protein [3] [µM]	apparent KD of MS2 coat protein [4] [µM]
ACCUCACAUGAGGAUCACCCAUGUCAGGAUAUAUUGUGCAAGCGCCGUGGCGUAUGUAGUAGAAGGGACGAAAC [Eternabot (L1) Solution 77] (Eterna round: R97, puzzle: Exclusion 1)	0.0183	–	0.0178	–	–	–
ACCUCACAUGAGGAUCACCCAUGUCAGGAUAUGUACCCGAUCAAGUCAGAGAUUGGGAGCAGAAGGGACUGCGG [Leesla] (puzzle: Exclusion 1)	–	–	–	0.104	–	–
ACCUCUAUCUAGGAUAUUGGAACCCGGUUAAAACAAGAAGGAGAUACAUGAGGAUCACCCAUGUUAACGAUGGA [Ereseninso] (puzzle: Exclusion 6)	–	–	–	0.0233	0.0975	0.0285
ACGAUGACCGAAAAGUGUAAACUGACAUGAGGAUCACCCAUGUAGGAUAUGGCUACGAAAAGUAGUCAGAAGGGCAUGUCAUCA [Omei Exc(NG) 3 Av9] (Eterna round: R96, puzzle: Exclusion NG 3)	0.016	0.0164	0.0209	–	–	–
ACGGACGCAGGAUAUCGCACCGGAGACUUGAGGAUCACCCAAGUGGUUUUCCCUUCGCAACGAGAAGGGCGACCUA [Tiarle] (Eterna round: R97, puzzle: Exclusion 5)	0.0557	–	0.0352	–	–	–
ACGUGAUAUCUGUCGGUGGACAUGAGGAUCACCCAUGUGAGCUUUUUGCUCGUCUUGUAACCCGGUGACAGACCUUC [Encetia] (puzzle: Sensor v3, turn-off variant 1)	–	–	–	0.213	0.0224	0.0223
ACGUGAUAUCUGUCGUUGGACAUGAGGAUCACCCAUGUGAGCUUUUUGCUCGUCUUAUAACCCGGUGACAGACCUUC [Aatbebeed] (puzzle: Sensor v3, turn-off variant 1)	–	–	–	0.247	0.0184	0.0166
ACGUGCACUCAGGAUAUGCUACGCCUGCUCUCAGCAGAAGGGAGUACAUGAGGAUCACCCAUGUGACAUCUGAU [Eternabot (Original) Solution 13] (Eterna round: R97, puzzle: Exclusion 6)	0.0443	–	0.026	–	–	–
ACGUUCAUUGAACAUGAGGAUCACCCAUGUGGCCUCCGGGUGGAGGAUAUGCACCAGGCCGAGGUGUAGAAGGCCAUAUACCGA [Riraed] (Eterna round: R96, puzzle: Exclusion NG 3)	0.155	0.049	0.0814	–	–	–
ACUAGAUGAGGAUAUGCACAUUUUAGUGUUCCUCUAGAUUAACAUGAGGAUCACCCAUGUAGAAGGCGUCAUUU [Exclusion 2 - 13] (Eterna round: R96, puzzle: Exclusion 2)	0.119	0.0591	0.0842	–	–	–
ACUAGAUGAGGAUAUGCACAUUUUAGUGUUCCUCUAGAUUAACAUGAGGAUCACCCAUGUAGAAGGCGUCAUUU [Exclusion 2 - 13] (puzzle: Exclusion 2)	–	–	–	0.0697	–	–
ACUAGAUGAGGAUAUGCAUAUUUUCGUGUUCUUCUAGAUUAACAUGAGGAUCACCCAUGUAGAAGGCGUCAAUA [Exclusion 2 - 15] (puzzle: Exclusion 2)	–	–	–	0.0154	–	–
ACUAGAUGAGGAUAUGCAUGUUUUCAUGUUCUUCUAGAUUAACAUGAGGAUCACCCAUGUAGAAGGCGUCUUUU [Exclusion 2 - 31] (puzzle: Exclusion 2)	–	–	–	0.0224	–	–
ACUCUGCGAGGAUAUACAUGAGGAUCACCCAUGUGCGAGUUACUUGUGAGGUCGGUUGGUAGAAGGCGCGGAGA [Mat - Exclusion 3 - Mod of JL D101] (puzzle: Exclusion 3)	–	–	–	0.0897	–	–
ACUGGAGCAGGAUAUAUAUGACGUGCUUCGGCACGGUGAGUACAUGAGGAUCACCCAUGUAGAAGGGCUCCAGU [Exclusion 2 (Mod2 of Brourd's E2/9-D2)] (Eterna round: R97, puzzle: Exclusion 2)	0.0884	–	0.0234	–	–	–
ACUGGUCGAGGAUAUACAUGAGGAUCACCCAUGUGAUCAGCAGUCCUCGGACUGCAAUGUAGAAGGCGACCAGU [E3/1-A2] (Eterna round: R97, puzzle: Exclusion 3)	0.143	–	0.356	–	–	–
ACUUAUAGAGGAUAUACAGUUAAUUACAUGAGGAUCACCCAUGUUCUUCAAUGUAUAUAAGUAGAAGGCUAAGGAA [Ex5 Malc#5 mod] (Eterna round: R97, puzzle: Exclusion 5)	0.0643	–	0.0167	–	–	–
